# According to US20120020988A1 (Hoffmann-La Roche, published 2012):
# Substitutions are numbered along the chain they refer to. In names and notes the source's numbering stands.
# T1: Cynomolgous TSLPR (on HEK293 cells) (Cynomolgous monkey)
# T1 construct: also called Cyno-TSLPR-HEK293; HEK-Cyno-TSLPR
# T1 chain: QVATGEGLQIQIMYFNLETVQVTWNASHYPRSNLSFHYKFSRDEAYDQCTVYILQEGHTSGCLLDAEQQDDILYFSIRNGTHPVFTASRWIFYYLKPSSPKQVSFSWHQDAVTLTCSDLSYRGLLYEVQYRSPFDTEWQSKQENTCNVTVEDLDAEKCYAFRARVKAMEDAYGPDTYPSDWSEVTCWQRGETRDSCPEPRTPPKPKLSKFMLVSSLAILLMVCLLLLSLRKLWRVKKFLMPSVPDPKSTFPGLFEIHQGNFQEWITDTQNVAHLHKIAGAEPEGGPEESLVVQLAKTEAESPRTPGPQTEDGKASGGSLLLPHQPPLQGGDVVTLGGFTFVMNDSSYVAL
# T2: human TSLPR (on cells) (human, UniProt Q9HC73 23-371)
# T2 sequence: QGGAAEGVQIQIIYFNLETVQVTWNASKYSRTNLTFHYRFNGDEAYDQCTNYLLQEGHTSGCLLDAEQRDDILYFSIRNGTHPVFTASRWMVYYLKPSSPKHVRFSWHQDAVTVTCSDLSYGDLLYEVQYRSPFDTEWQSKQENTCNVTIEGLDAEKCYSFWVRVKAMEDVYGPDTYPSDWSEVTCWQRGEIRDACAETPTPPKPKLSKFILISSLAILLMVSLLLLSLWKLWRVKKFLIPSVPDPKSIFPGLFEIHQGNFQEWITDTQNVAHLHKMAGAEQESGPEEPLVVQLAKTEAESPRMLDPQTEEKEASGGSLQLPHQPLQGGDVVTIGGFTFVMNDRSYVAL
# T3: Recombinant human TSLPR-Fc (human, UniProt Q9HC73 23-231)
# T3 construct: also called recombinant human soluble TSLPR-Fc fusion protein; not shown: Fc part
# T3 sequence: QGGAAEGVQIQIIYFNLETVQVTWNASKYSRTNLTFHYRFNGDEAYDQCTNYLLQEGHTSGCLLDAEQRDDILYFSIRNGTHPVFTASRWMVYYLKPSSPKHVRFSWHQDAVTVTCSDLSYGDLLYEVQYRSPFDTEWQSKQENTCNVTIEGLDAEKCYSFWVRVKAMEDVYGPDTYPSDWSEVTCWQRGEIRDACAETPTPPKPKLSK
# T4: TSLPR-ECD (extracellular domain of TSLPR) (human, UniProt Q9HC73 23-231)
# T4 construct: Obtained by cleavage of a TSLPR-Fc fusion protein expressed in HEK cells; also called analyte 2
# T4 sequence: T3 sequence
# B1: TSLPR-012 (hamster) (antibody, V domains shown)
# VH: QIQLQESGPGLVKPSQSLSLTCSVTGFSITTSGYYWTWIRQFPGKKLEWMGYIGYNSKTYYNPSLKSRISITRDTSKNQFLLHLNSVTTEDTATYYCARSLYGGYKDAFDSWGQGTLVTVSS
# VL: DVVLTQTPATLSAIPGERVTMTCKASQSIGTSLHWYQHRPNETPRLLIKFASRSITGIPSRFSGSGSGTDFTLGINNLEAEDFAIYYCQQSPGFPPTFGSGTKLEINR
# notes: Parent Armenian hamster monoclonal antibody; the hamster constant regions are not; also called TSLP-012; hamster antibody TSLPR-012
# B2: TSLPR-012_166, CDR grafted (antibody, V domains shown)
# VH: QVQLQESGPGLVKPSQTLSLTCTVSGFSITTSGYYWSWIRQHPGKGLEWIGYIGYNSKTYYSPSLKSRVTISRDTSKNQFSLKLSSVTAADTAVYYCARSLYGGYKDAFDSWGQGTLVTVSS
# VL: DIQMTQSPSSLSASVGDRVTITCRASQSIGTSLHWYQHRPGETPKLLIKFASRSISGVPSRFSGSGSGTDFTLTISSLQPEDFATYYCQQSPGFPPTFGQGTKLEIKR
# notes: Humanized (CDR grafted) variant of hamster TSLPR-012; human kappa and human IgG1 or IgG4(S228P,L235E) appear only as embodiments
# B3: TSLPR-012_189, CDR grafted (antibody, V domains shown)
# VH: QVQLVESGGGLVKPGGSLRLSCAASGFSITTSGYYWTWIRQFPGKGLEWMGYIGYNSKTYYNPALKSRITISRDNAKNSLYLQMNSLRAEDTAVYYCARSLYGGYKDAFDSWGQGTLVTVSS
# VL: EIVMTQSPATLSVSPGERATLSCRASQSIGTSLHWYQQKPGQAPRLLIKFASRSITGIPARFSGSGSGTEFTLTISSLQSEDFAVYYCQQSPGFPPTFGQGTKLEIKR
# notes: as for B2
# B4: TSLPR-012_141, CDR grafted (antibody, V domains shown)
# VH: B3 VH
# VL: B2 VL with H38Q, R39K, E42K, T43A, S54L, I55Q
# notes: as for B2
# B5: TSLPR-012_75, CDR grafted (antibody, V domains shown)
# VH: B3 VH
# VL: EIVLTQSPDFQSVTPKEKVTITCRASQSIGTSLHWYQQKPDQSPKLLIKFASRSISGVPSRFSGSGSGTDFTLTINSLEAEDAATYYCQQSPGFPPTFGQGTKLEIKR
# notes: as for B2
# B6: 1D6.C9 (WO2007/112146) (antibody, from another filing, V domains shown)
# VH: QIQLGQSGPELKKPGETVKISCKASGYTFTTYGMSWVKQAPGKGLQWMGWINTYSGVPRYADDFKGRFAFSLETSASTAYLQIYNLKNEDTATYFCTREGFITTVVGAAGRFVYWGQGTLVTVSA
# VL: DIVMTQSHKFMSTSVGDRVSITCKASQDVGTAVAWYQQKPGQSPKLLIYWASTRHTGVPDRFTGSGSGTDFTLTLNNVQSEDLADYFCQQYSTYPTFGSGTKLELKR
# Target: T1, Cynomolgous TSLPR (on HEK293 cells)
# Test: FACS on HEK293 cells transiently transfected with Cynomolgous TSLPR
# Protocol: (§1) BA/F3-TSLPR/IL7Rα or Cyno-TSLPR-HEK293 cells were starved from TSLP overnight, harvested by centrifugation, washed once in PBS and re-suspended in FACS buffer (PBS/5% FCS) at 10⁶/ml. 100 μl of cell suspension were incubated in a 96-well round-bottom plate well together with 100 μl of anti-TSLPR antibody solution for 45 minutes on ice. After three washes with FACS buffer, cells were re-suspended in a solution of PE-coupled anti-hamster-F(ab)2 (Dianova, Hamburg, Germany, #127-115-160) (1:200 in FACS buffer) and incubated for 30 minutes on ice. After three further washes cells were re-suspended in 200 μl of FACS buffer and measured on a FACSCanto™ flow cytometer (10,000 cells, flow rate 3).
row,EC50,Binder
1,0.0118 µg/mL,B1
2,0.0086 µg/mL,B2
3,0.0103 µg/mL,B3
4,0.0097 µg/mL,B4
5,0.0108 µg/mL,B5

# Target: T2, human TSLPR (on cells)
# Test: cell-based or functional assay
row,IC50 proliferation (example 4),Binder
1,0.084 µg/mL,B6

# Target: T3, Recombinant human TSLPR-Fc
# Test: blocking ELISA: antibody on coated TSLPR-Fc, then TSLP + IL7Rα-Fc; TSLP binding detected
# Protocol: Recombinant human TSLPR-Fc was coated to 96-well Nunc Maxisorp™ plate wells by incubating 50 μl of a 0.2 μg/ml solution of TSLPR-Fc in PBS per well for 1 h at RT. Subsequently the wells were blocked with 1% Crotein™ C in PBS (blocking buffer) for 1 h at RT, followed by two washes with wash buffer (ice-cold PBS/0.05% TWEEN® 20). 50 μl of anti-TSLPR antibody solution (antibodies and according to WO 2007/112146) were then added to the wells and incubated for 2 h at 4° C., followed by four wash steps. After addition of 50 μl of a mixture of human recombinant TSLP (12.5 ng/ml) and human recombinant IL7Rα-Fc (1 μg/ml) in blocking buffer, the plate was shaken for 1 h at 4° C., followed by further four wash steps. TSLP binding was detected by incubation with 50 μl of biotinylated anti-TSLP antibody (0.08 μg/ml in blocking buffer), followed by four washes and incubation with 50 μl of streptavidin-HRP (0.25 μg/ml in blocking buffer) per well. After another four washing steps, color was developed by incubation with 50 μl of 3,3,5,5-Tetramethylbenzidine substrate, followed by addition of 50 μl of 1 N HCl. Absorbance was read out at 450 and 620 nm.
row,IC50,Binder
1,0.0088 µg/mL,B1
2,0.0122 µg/mL,B2
3,0.0136 µg/mL,B3
4,0.0104 µg/mL,B4
5,0.0134 µg/mL,B5
6,0.0152 µg/mL,B6

# Target: T2, human TSLPR (on cells)
# Test: FACS on BA/F3 cells stably overexpressing human TSLPR and IL-7Rα
# Protocol: as §1
row,EC50,Binder
1,0.0156 µg/mL,B1
2,0.0118 µg/mL,B2
3,0.0149 µg/mL,B3
4,0.0133 µg/mL,B4
5,0.0157 µg/mL,B5

# Target: TSLPR-ECD (extracellular domain of TSLPR) (human) (UniProt Q9HC73)
# Test: SPR (Biacore 3000), antibody captured by anti-IgG, TSLPR-ECD as analyte, 25 °C, 1:1 Langmuir fit
row,Kd,Binder
1,2.97 nM,B6

# Target: T4, TSLPR-ECD (extracellular domain of …)
# Test: as above
# Protocol: The binding properties of monoclonal anti-TSLPR antibodies and according to WO 2007/112146 were analyzed by surface plasmon resonance (SPR) technology using a Biacore 3000 instrument. The affinity was determined using an assay setup with capturing antibodies. These capturing antibodies (goat anti-human-IgG, goat anti-hamster-IgG) were immobilized on the surface of a CM5 biosensorchip using amine coupling chemistry. The capturing antibodies were injected in sodium acetate buffer, pH 5.0 at a concentration of 5 μg/ml aiming for a surface density of approx 1000 RU. Remaining reactive groups were inactivated by an injection of 1 M ethanolamine/HCl pH 8.5. Running buffer was HBS-P. The anti-TSLPR antibodies (analyte 1) were diluted in HBS-P to a concentration of 25 nM and injected at a flow rate of 5 μl/min for 3 minutes, resulting in a binding signal of 100-400RU dependent on the antibodies applied. The extracellular domain of TSLPR, TSLPR-ECD, obtained by cleavage of a TSLPR-Fc fusion protein expressed in HEK cells (analyte 2), was injected in concentrations ranging from 0-50 nM at a flow rate of 20 μl/min. The contact time (association phase) was 3 min for TSLPR followed by 5 minutes of dissociation. Regeneration solution 10 mM glycine HCl pH1.5 or 10 mM glycine HCl pH1.7 was injected twice at a flow rate of 10 μl/min for 1 min to remove any bound protein after each binding cycle. All interactions were performed at 25° C. (standard temperature). Signals were detected at a detection rate of 1 signal/second. The signals from a reference flow cell (FC1: same capturing antibody and addition of control antibody) and from blank buffer injections were subtracted and data were evaluated. All binding curves were fitted to a 1:1 Langmuir binding model. Association rate constant (ka), dissociation rate constant (kd) and the dissociation equilibrium constant (KD) were calculated accordingly.
row,Kd,Binder
1,0.25 nM,B1
2,2.45 nM,B2
3,0.6 nM,B3
4,0.87 nM,B4
5,0.5 nM,B5

# Target: T2, human TSLPR (on cells)
# Test: cell-based or functional assay
# Remark: another data set of the same source
"IC50 DC assay (example 7), TARC secretion",IC50 proliferation (example 4),Binder
0.129 µg/mL,0.026 µg/mL,B1
0.086 µg/mL,0.034 µg/mL,B2
0.023 µg/mL,0.025 µg/mL,B3
0.046 µg/mL,0.037 µg/mL,B4
0.042 µg/mL,0.026 µg/mL,B5

# Target: T2, human TSLPR (on cells)
# Test: cell-based or functional assay
# Remark: another data set of the same source
"IC50, IL-5 release in Th2 polarization assay","IC50, IL-13 release in Th2 polarization assay","IC50, TARC secretion by human dendritic cells stimulated with TSLP","average IC50, mast cell cytokine production (IL-13, IL-5, GMCSF)",Binder
1.62 nM,2.57 nM,2.4 nM,0.04 to 0.06 nM,B4
